This is an account of results in article PMC9936548, “Repertoire of Computationally Designed Peroxygenases for Enantiodivergent C–H Oxyfunctionalization Reactions” (Journal of the American Chemical Society, 2023).

Substrate in the data set: CCc1ccccc1
In words: purified protein. The class given is biochemical, Cyclocybe aegerita.

Setting [1] is: 2 mM H2O2, 100 mM phosphate pH 7.0, design d2.
Setting [2] is: 2 mM H2O2, 100 mM phosphate pH 7.0, design d4.

Substitutions are numbered along the chain they refer to. Names and notes keep the numbering of the source.

B1: PaDa-I (evolved AaeUPO) (Cyclocybe aegerita; A359P/F242L/F354L/G284I/I291V/L110F/T235L/V100A/V118I/V287I) (protein)
chain: EPGLPPGPLENSSAKLVNDEAHPWKPLRPGDIRGPCPGLNTLASHGYLPRNGVATPAQIINAVQEGFNFDNQAAIFATYAAHLVDGNLITDLLSIGRKTRLTGPDPPPPASVGGLNEHGTFEGDASMTRGDAFFGNNHDFNETLFEQLVDYSNRFGGGKYNLTVAGELRFKRIQDSIATNPNFSFVDFRFFLAYGETTLPANLFVDGRRDDGQLDMDAARSFFQFSRMPDDFFRAPSPRSITGIEVVVQAHPMQPGRNVGKINSYTVDPTSSDFSTPCLMYEKFVNITVKSLYPNPTVQLRKALNTNLDFLFQGVPAGCTQVFPYGRD
notes: laboratory-evolved secretion mutant PaDa-I; mature, no tag; evolved signal peptide (F12Y/A14V/R15G/A21D in leader); heme and structural Mg; expressed in Pichia pastoris, purified to homogeneity
As usually defined, the Km is the substrate concentration at which the rate is half of its maximum. Broadly, the kcat is the maximal rate divided by the concentration of active sites. As a reminder, the kcat/Km is the turnover number divided by the Michaelis constant. For B1, under setting [1], the Km amounted to 560 ± 200 µM, the kcat turned out to be 570 ± 119 s⁻¹ and the kcat/Km worked out at 1.02e+06 M⁻¹ s⁻¹.

B2: PaDa-I (evolved AaeUPO) (Cyclocybe aegerita; A120I/F112L/F242L/F354L/G284N/I291V/L110F/V100A/V118I/V287T) (protein)
chain: B1 chain with F69L, A77I, L192T, I241N, I244T, P316A
notes: as for B1
On to B2, for which, under setting [2], the Km amounted to 560 ± 200 µM, the catalytic constant (kcat) stood at 570 ± 119 s⁻¹ and the kcat/Km was 1.02e+06 M⁻¹ s⁻¹.
